Among the data in patent publication US20070059799A1 are binding affinity ratio (IC50 of standard peptide / IC50 of test peptide), binding affinity ratio (ratio to standard peptide) and IC50 values, retold here.

The target of test [1] is HLA-A*0201 (Human). The experiment in a line: competition with 125I-labelled standard peptide for purified HLA, gel filtration. In general terms: Size exclusion chromatography separates by hydrodynamic size, large species first.
Test [2] concerns the target HLA-B*0702 (human).
The target of test [3] is HLA-A*1101 (human). The experiment in a line: inhibition of 125I-labelled standard peptide binding to purified HLA.
In test [4] the target is HLA-A*3301 (human). Described as above.
In test [5] the target is HLA-A*0201 (Human). The experiment in a line: competition with 125I-labeled probe peptide for purified HLA, gel filtration. To be noted: remark: other sources report otherwise.
Test [6] addresses HLA-A*0301 (human). The experiment in a line: competition with 125I-labelled standard peptide on purified HLA, gel filtration.
Test [7] addresses HLA-A*1101 (human). The test is described as above.
For test [8], the target named is HLA-A*3101 (human). The test is described as above.
For test [9], the target named is HLA-A*3301 (human). Described as above.
Another test deals with HLA-A*6801 (human). Described as above. To be noted: remark: other sources report otherwise.
For the next test, the target named is HLA-B*5301 (human). Kind of test: competition with 125I-labelled standard peptide for purified HLA, gel filtration.
Test [10] addresses HLA-A*0301 (human).
Test [11] has as its target HLA-A*0301 (human). This is another data set of the same source.
For test [12], the target named is HLA-B*0702 (human). The experiment in a line: competition with 125I-labelled standard peptide for purified HLA, gel filtration.
The target of test [13] is HLA-B*5401 (human). Described as above.
The target in test [14] is HLA-B*5401 (human). The experiment in a line: competition with 125I-labelled probe peptide for purified HLA, gel filtration. To be noted: remark: other sources report otherwise.
The target of test [15] is HLA-A*0301 (human). The description is as above.
Test [16] deals with HLA-A*3101 (human). Kind of test: inhibition of 125I-labelled standard peptide binding to purified HLA.
Where [17] appears, read: remark: other sources report otherwise.

Read-outs that look alike come from different tables or passages of the source.

B1: HBV POL 627 peptide … (peptide)
peptide: GLLGFAAPFT
modifications: not checked
With B1, the binding affinity ratio (IC50 of standard peptide / IC50 of test peptide) with HLA-A*0201 (Human) [1] came to 0.0049.

B2: HBV ENV 348 peptide … (peptide)
peptide: GLSPTVWLSVI
modifications: not checked
On to B2, for which the binding affinity ratio (IC50 of standard peptide / IC50 of test peptide) in the test with HLA-A*0201 (Human) [1] stood at 0.0036.

B3: HBV POL 50 peptide … (peptide)
peptide: IPWTHKVGNF
modifications: not checked
For the molecule B3, the binding affinity ratio (ratio to standard peptide) with HLA-B*0702 (human) [2] turned out to be 0.0013.

B4: HBV X 20 peptide … (peptide)
peptide: PVGAESRGR
modifications: not checked
Turning to B4, the figures for the binding affinity ratio (IC50 of standard peptide / IC50 of test peptide) with HLA-A*1101 (human) [3] and with HLA-A*3301 (human) [4] were 0.0005 and 0.0043, respectively.

B5: HBV POL 524 peptide 1069.073 (…) (peptide)
peptide: FLLAQFTSA
modifications: not checked
In general, IC50 refers to the concentration that gives 50% inhibition. Lower therefore signals greater potency. B5: the IC50 with HLA-A*0201 (Human) [5] was determined as 6 nM.

B6: HBV POL 150 11-mer peptide … (SEQ ID NO: 666) (peptide)
peptide: TLWKAGILYKR
modifications: not checked
Regarding B6, the binding affinity ratio (IC50 of standard peptide / IC50 of test peptide) in the test with HLA-A*0301 (human) [6] (setting [17]) is 0.0082; in the test with HLA-A*1101 (human) [7] (setting [17]), 0.0095; in the test with HLA-A*3101 (human) [8] (setting [17]), 0.1; with HLA-A*3301 (human) [9] (setting [17]) it was 0.11; with HLA-A*6801 (human) it was 0.064.

B7: HBV X 65 8-mer peptide SAGPCALR (SEQ ID NO: 651) (peptide)
peptide: SAGPCALR
modifications: not checked
For the molecule B7, the binding affinity ratio (IC50 of standard peptide / IC50 of test peptide) with HLA-A*0301 (human) [6] (setting [17]) was -0.0002; with HLA-A*1101 (human) [7] (setting [17]) it was 0.002; in the test with HLA-A*3101 (human) [8] (setting [17]), 0.0029; with HLA-A*6801 (human) it was 0.036.

B8: HBV NUC 129 peptide … (peptide)
peptide: PPAYRPPNAPI
modifications: not checked
Consider B8, for which the binding affinity ratio (IC50 of standard peptide / IC50 of test peptide) with HLA-B*5301 (human) was -0.0003.

B9: HBV POL 150 … (peptide)
peptide: TLWKAGILYKR
modifications: not checked
As to B9, in the test with HLA-A*0301 (human) [10] (setting [17]), the binding affinity ratio (IC50 of standard peptide / IC50 of test peptide) worked out at 0.0082.

B10: HBV ENV 348 peptide GLSPTVWL (peptide)
peptide: GLSPTVWL
modifications: not checked
As for B10, the binding affinity ratio (IC50 of standard peptide / IC50 of test peptide) with HLA-A*0201 (Human) [1] amounted to 0.0036.

B11: HBV POL 98 peptide … (peptide)
peptide: PLTVNEKRR
modifications: not checked
Take B11: the binding affinity ratio (IC50 of standard peptide / IC50 of test peptide) with HLA-A*1101 (human) [3] is 0.0005; with HLA-A*3301 (human) [4], 0.0027.

B12: WLQFRNSK (HBV POL 314) (peptide)
peptide: WLQFRNSK
modifications: not checked
Turning to B12, the binding affinity ratio (IC50 of standard peptide / IC50 of test peptide) in the test with HLA-A*0301 (human) [11] is -0.0002.

B13: HBV POL 398 peptide … (peptide)
peptide: VPNLQSLTNL
modifications: not checked
For the molecule B13, the binding affinity ratio (IC50 of standard peptide / IC50 of test peptide) with HLA-B*0702 (human) [12] was found to be 0.0008.

B14: HBV POL 716 11-mer peptide … (SEQ ID NO: 661) (peptide)
peptide: TAELLAACFAR
modifications: not checked
B14: the binding affinity ratio (IC50 of standard peptide / IC50 of test peptide) in the test with HLA-A*0301 (human) [6] (setting [17]) is 0.0006; with HLA-A*1101 (human) [7] (setting [17]), 0.0023; with HLA-A*3101 (human) [8] (setting [17]) it was 0.0066; with HLA-A*3301 (human) [9] (setting [17]), 0.16; with HLA-A*6801 (human), 0.059.

B15: HBV NUC 44 peptide […] (peptide)
peptide: SPEHCSPHHTA
modifications: not checked
Take B15: the results for the binding affinity ratio (IC50 of standard peptide / IC50 of test peptide) with HLA-B*0702 (human) [12], with HLA-B*5301 (human) and in the test with HLA-B*5401 (human) [13] were -0.0002, -0.0003 and 0.0011, respectively.

B16: HBV POL 723 peptide 16.0181 (…) (peptide)
peptide: LPIHTAELLA
modifications: not checked
As for B16, in the test with HLA-B*5401 (human) [14], the IC50 was determined as 30 nM.

B17: HBV POL 519 9-mer peptide … (SEQ ID NO: 667) (peptide)
peptide: TSAICSVVR
modifications: not checked
As for B17, the binding affinity ratio (IC50 of standard peptide / IC50 of test peptide) in the test with HLA-A*0301 (human) [6] (setting [17]) is 0.0005; in the test with HLA-A*3101 (human) [8] (setting [17]), 0.06; with HLA-A*3301 (human) [9] (setting [17]), 0.02; with HLA-A*6801 (human) it was 0.082.

B18: HBV POL 519 … (peptide)
peptide: TSAICSVVR
modifications: not checked
Turning to B18, in the test with HLA-A*0301 (human) [10] (setting [17]), the binding affinity ratio (IC50 of standard peptide / IC50 of test peptide) came to 0.0005.

B19: HBV POL 716 … (peptide)
peptide: TAELLAACFAR
modifications: not checked
Regarding B19, the binding affinity ratio (IC50 of standard peptide / IC50 of test peptide) in the test with HLA-A*0301 (human) [10] (setting [17]) amounted to 0.0006.

B20: HBV NUC 188 8-mer peptide ATPSPRRR (SEQ ID NO: 648) (peptide)
peptide: RTPSPRRR
modifications: not checked
B20: the binding affinity ratio (IC50 of standard peptide / IC50 of test peptide) with HLA-A*0301 (human) [6] was -0.0002; with HLA-A*1101 (human) [7] it was -0.0002; in the test with HLA-A*3101 (human) [8], 0.0033; in the test with HLA-A*3301 (human) [9], 0.0014.

B21: HBV NUC 30 peptide … (peptide)
peptide: LLDTASALYR
modifications: not checked
With B21, the binding affinity ratio (IC50 of standard peptide / IC50 of test peptide) with HLA-A*0301 (human) [15] amounted to 0.005.

B22: … (HBV NUC 26) (peptide)
peptide: WLWGMDIDPYK
modifications: not checked
Regarding B22, the binding affinity ratio (IC50 of standard peptide / IC50 of test peptide) in the test with HLA-A*0301 (human) [11] (setting [17]) was determined as 0.003.

B23: HBV POL 736 … (peptide)
peptide: TDNSVVLSRK
modifications: not checked
As to B23, the binding affinity ratio (IC50 of standard peptide / IC50 of test peptide) in the test with HLA-A*0301 (human) [10] stood at 0.0006.

B24: HBV ENV 9 peptide […] (peptide)
peptide: NPLGFFPDHQL
modifications: not checked
Take B24: the values for the binding affinity ratio (IC50 of standard peptide / IC50 of test peptide) with HLA-B*0702 (human) [12] and with HLA-B*5301 (human) were 0.0012 and 0.0028, respectively.

B25: HBV POL 569 peptide … (peptide)
peptide: HLNPNKTKR
modifications: not checked
For the molecule B25, the binding affinity ratio (IC50 of standard peptide / IC50 of test peptide) with HLA-A*0301 (human) [15] was found to be 0.0025.

B26: … (HBV NUC 118) (peptide)
peptide: YLVSFGVWIR
modifications: not checked
Turning to B26, the binding affinity ratio (IC50 of standard peptide / IC50 of test peptide) in the test with HLA-A*0301 (human) [11] is 0.0005.

B27: HBV POL 520 8-mer peptide SAICSVVR (SEQ ID NO: 652) (peptide)
peptide: SAICSVVR
modifications: not checked
In the case of B27, the binding affinity ratio (IC50 of standard peptide / IC50 of test peptide) with HLA-A*1101 (human) [7] (setting [17]) is 0.0071; with HLA-A*3101 (human) [8] (setting [17]) it was 0.028; in the test with HLA-A*3301 (human) [9] (setting [17]), 0.0081; with HLA-A*6801 (human), 0.069.

B28: HBV NUC 123 peptide … (peptide)
peptide: GVWIRTPPA
modifications: not checked
For the molecule B28, the binding affinity ratio (IC50 of standard peptide / IC50 of test peptide) with HLA-A*0201 (Human) [1] turned out to be 0.003.

B29: HBV NUC 128 peptide … (peptide)
peptide: TPPAYRPPNA
modifications: not checked
With B29, in the test with HLA-B*5401 (human) [13], the binding affinity ratio (IC50 of standard peptide / IC50 of test peptide) came out at 0.01.

B30: WIRTPPAY (HBV NUC 125) (peptide)
peptide: WIRTPPAY
modifications: not checked
Regarding B30, the binding affinity ratio (IC50 of standard peptide / IC50 of test peptide) in the test with HLA-A*0301 (human) [11] was -0.0002.

B31: HBV NUC 171 9-mer peptide … (SEQ ID NO: 662) (peptide)
peptide: TLPETTVVR
modifications: not checked
In the case of B31, the binding affinity ratio (IC50 of standard peptide / IC50 of test peptide) in the test with HLA-A*3101 (human) [8] (setting [17]) was found to be 0.0009; with HLA-A*6801 (human), 0.018.

B32: HBV POL 98 peptide PLTVNEKR (peptide)
peptide: PLTVNEKR
modifications: not checked
Take B32: the binding affinity ratio (IC50 of standard peptide / IC50 of test peptide) in the test with HLA-A*1101 (human) [3] was -0.0002; with HLA-A*3101 (human) [16] it was -0.0009; in the test with HLA-A*3301 (human) [4] it was -0.0009.

B33: HBV POL 771 11-mer peptide … (SEQ ID NO: 654) (peptide)
peptide: SALNPADDPSR
modifications: not checked
Regarding B33, the binding affinity ratio (IC50 of standard peptide / IC50 of test peptide) in the test with HLA-A*0301 (human) [6] is -0.0004; with HLA-A*1101 (human) [7], -0.0003; with HLA-A*3101 (human) [8], -0.0012; in the test with HLA-A*3301 (human) [9], -0.0023.

B34: YSLNFMGY (HBV POL 580) (peptide)
peptide: YSLNFMGY
modifications: not checked
B34: the binding affinity ratio (IC50 of standard peptide / IC50 of test peptide) in the test with HLA-A*0301 (human) [11] is -0.0002.

B35: HBV POL 2 peptide … (peptide)
peptide: PLSYQHFRK
modifications: not checked
As for B35, the binding affinity ratio (IC50 of standard peptide / IC50 of test peptide) with HLA-A*1101 (human) [3] stood at 0.0031; with HLA-A*3101 (human) [16], 0.0006.

B36: HBV ENV 360 peptide 1039.031 (…) (peptide)
peptide: MMWYWGPSL
modifications: not checked
In the case of B36, in the test with HLA-A*0201 (Human) [5], the IC50 was found to be 5.6 nM.

B37: HBV POL 20 peptide PLEEELPR (peptide)
peptide: PLEEELPR
modifications: not checked
Regarding B37, the binding affinity ratio (IC50 of standard peptide / IC50 of test peptide) was -0.0002 with HLA-A*1101 (human) [3], -0.0009 with HLA-A*3101 (human) [16] and -0.0009 with HLA-A*3301 (human) [4].
